From PMC11388503 come the findings set out here.

The target of this data set is T1, procalcitonin (UniProt P01258 26-141).
T1 sequence: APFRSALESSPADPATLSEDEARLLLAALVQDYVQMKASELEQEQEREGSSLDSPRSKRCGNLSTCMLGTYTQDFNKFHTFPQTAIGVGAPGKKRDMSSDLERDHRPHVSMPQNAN
The data set is described as follows: electrochemical IDE sensor.

B1: complementary aptamer (ssDNA)
DNA: GGCGCCGTCAAGGCATTACAATTACGGATATGAACTCGAC
modifications: 5'-SH (thiol)
For the molecule B1, the binding result is on record as “no binding”.
